{"source": "patent US20150299272A1", "about": "(UNIVERSITY OF NEWCASTLE UPON TYNE, published 2015)", "target": "Caf1-FLAG epitope NT (Yersinia pestis, UniProt P26948 1-170)", "experiment": "co-expression in E. coli, western blot of partly heat-dissociated polymer"}
{"binder": "Caf1 WT (naturally occurring Caf1 polypeptide monomer from Yersinia pestis; fraction 1 antigen polymer) (other) ADLTASTTATATLVEPARITLTYKEGAPITIMDNGNIDTELLVGTLTLGGYKTGTTSTSVNFTDAAGDPMYLTFTSQDGNNHQFTTKVIGKDSRDFDISPKVNGENLVGDDVVLATGSQDFFVRSIGSKGGKLAAGKYTDAVTVTVSNQ", "values": [{"measurement": "binding result", "value": "binds"}]}
